In a protein production outcome set (Wang et al. 2014) one finds protein production data, which are given here for 19 sequences.
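Further: failed if final PepcDB status was selected cloned or expressed and not failed if soluble or beyond.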

This data set is described as follows: label from the status in PepcDB records.
On to “MDINMKKHKTIQFIVAALFIASACTDDRDNLMVNDQIGLLHSTYTETEIFRGMDTPYQLFVIKSGKGKQETEVSISVDETVLQSYNTDNGTSIQLLPSDCYTILQPALRLNDSDYRKAFDIKWNADRLSDLLSTGKEYGLPIQMSVVQNFISADDERLKTIIVPTIKEPYLQMDVPGMSPVTDFMPTFGDLNERELFVKIRTNYSNDEDISFQIEVDPQLVIDYNTAHGTAYKMLPESSFTVDNKGVILTGMKETFIKIKYHKKGLIPEEGTYLFGDYVLPLRITSVSKYGISPDAASKLYTVKFQPDPIDKKGWSVIDFNNCCTQDGGWYLNMGWGVESLIDNNPGTQWLCRWDVKEPLPYYFVFDMGKEYTLFRFGFANPVAPAAHVWAGTSKAGYVEASIDNENWVKLKDWTSPKIGEPNVNMDVPATQARYIRFVITDTYPTYDGLRVSLGEVYAWGM”, for which the protein production result was “failed”. With “VFADKLDITVDQKKIILPYWLSRPVSYGAVIIVSGGETAQWSLLLEQFAKGLARNGWSVVLLNCTKNNSIPWINQLPEVISTLRQNNNKRIVLVHYGDQLNLALEYFSKPQSKMINGLVMLSAYDLNRNLQKVPRLRFPLFDIVGQFDYDMVRQQRKSREEKFKENSYLAIDIPGATHDYQYSQQLLLAFVHGWM” the entry was “not failed”.

“MSLFMSCVGILVLLFIGFLLSENKKAINVRTIVIALITQISFGAFVMYVPLGQGILQMMSDAVNHIINFSNEGLTFVFGDLANYKVGFIFVINVLCVVIFISALISVLYYLKIMQFVINLIGGALSKLFGTSKAESMSATANIFVGPIEAPSMVRPLIKKMTRSELFAVMTGGLASVAGGTMIGYINLGIDPKYILTACFMTAPAGLLFAKLLCPQTEQEKITNEIEIDDETTPKSLLDAITDGSIMGMNQVATVTALLISFVALIALVNSLVGGIGDLISIEGLSLELIIGYILSPLAFLMGVPWSEAVTAASLIGQKIAVNEFVAYINFIEIAETLSPKTQAIVVFSLCGFANIGSLAMVIGGLGAICPNKRHILSEIGPRVLMAAILANLMSGTIAGALLSFS”: the protein production result was “failed”. Under “MALPASTPPRAKKRFAWIRTLRWYWWLLLFILLGYGLSHIMHWDDRGLLWLKERFESNEERSASIWLPDYHVEIDAKALPGMEKDEASDLSYNPISKTLFAVMGKNAFLVELTLKGDVLRKIPLVGWSNPEGVAVMNDGLIAITDERQHQLTIVKVTADTTTLNIADFPHYELGTSANKNKGFEGVAWDPRRQQLLLGEERPPALYTWKSDGSNVLKGDKQSLLSRALDMRNLSSLSIDPRTGHMLALSADSHMLLEVDEQGNQVSFMTLLGGMNGLKDTIPRAEGVALDEAGTLYMVSEPNLFYSFRKQ” stands “failed”; under “PPLPLVYERIMLKGKGAMHSSTGLAIPASEIIDVMPPELLRFLIARVNPSRHIDFDP”, “failed”. For “MSLKIIAPTDKTITPSGTWSIGARAGDFVFIGGMHGTDRVTGKMVDGDEARIRRMFDNMLAAAEAAGATKADAVRLTVFVTDVAKYRPVVNKVQKDIWGDGPYPPRTVLQVPALDQGDIAEIDGTFYAPAEGHHHHHH”, the protein production result was “not failed”. As for “KAKPVATAPIPGTPWCVVWTGDERVFFYNPTTRLSMWDRPDDLIGRADVDKIIQEPPHKK”, the protein production entry was “not failed”. With “MKKLDASTAVSLTGMPELERIVESLCTPESYEAVYHQSLHGSPMPSLEALTELMARLRAALFPGYFGASNIVLESMRYHLAANLDSIYRILAEQVRRGGCFACADYATDCQNCESHSQETAMEFMRALPRIRQLLATDVKAAYEGDPAAKSPGETIFCYPSIYAMIHHRIAHELYRLDVPVIPRIISEMAHSRTGIDIHPGATVGEEFFIDHGTGVVIGETCIIGRGCRLYQGVTLGALSFPKDGGGALIKGIPRHPILQDGVTVYAGATILGRVTIGAGAIVGGNVWVTHDVAPGAKVVQQKSSPPAAEDRMVGTKNGTPKA” the entry was “failed”. With “RYREGLSEALKEPEAKDPGFLERLVALYEEGGEDLLTPPGRVDVRVGEVEGLALVQAGFQKGEWLGELTLIGPLRMRYAEALSVAFSLSQVYTGQHAD” the entry was “failed”; with “MVAKDYPFYLTVKRANCSLEAPLGSGVAKDEEPSNKRVKPLSRVTSLANLIPPVKTTPLKRFSQTLQRSISFRSESRPDILAPRAWSRNATSSSTKRRDSKLWSETFDVCVNQVLTAKEIKRQEAIFELSQGEEDLIEDLKLAKKAYHDPMLKLSIMTEQELNQIFGTLDSLIPLHEELLSQLRDVRKPDGSTEHVGPILVGWLPCLSSYDSYCSNQVAAKALLDHKKQDHRVQDFLQRCLESPFSRKLDLWNFLDIPRSRLVKYPLLLREILRHTPNDNPDQQHLEEAINIIQGIVAEINTKTGESECRYYKERLLYLEEGQKDSLIDSSRVLCCHGELKNNRGVKLHVFLFQEVLVITRAVTHNEQLCYQLYRQPIPVKDLTLEDLQDGEVRLGGSLRGAFSNNERVKNFFRVSFKNGSQSQTHSLQANDTFNKQQWLNCIRQAKETVLSAAGQAGLLDSEGLVQGPGTENREPQGETKLEQMDQSDSESDCSMDTSEVSLECERMEQTDASCANSRPEESV”, “not failed”. For the sequence “MALKDYALEKEKVKKFLQEFYQDDELGKKQFKYGNQLVRLAHREQVALYVDLDDVAEDDPELVDSICENARRYAKLFADAVQELLPQYKEREVVNKDVLDVYIEHRLMMEQRSRDPGMVRSPQNQYPAELMRRFELYFQGPSSNKPRVIREVRADSVGKLVTVRGIVTRVSEVKPKMVVATYTCDQCGAETYQPIQSPTFMPLIMCPSQECQTNRSGGRLYLQTRGSRFIKFQEMKMQEHSDQVPVGNIPRSITVLVEGENTRIAQPGDHVSVTGIFLPILRTGFRQVVQGLLSETYLEAHRIVKMNKSEDDESGAGELTREELRQIAEEDFYEKLAASIAPEIYG”, the protein production result is “failed”. Consider “MSINDVAKLFGSAWIVMMADVDAASILTGVADGQTYGYRLIILLLVLTLPLYIVQEAAGRVGAVNNGKGLGTLLREKFSQKFALTAAIPMFLVDLFTYVVEYVGIAVGSLMIGVPVYISLPLFFVIHLSIVLTRTYEKMEKTLLGISFFLVIAFIVQAFLRGVSPNQQLLYFSASKSFLFFLAANIGAVVMPFMIFYQASATAYKYNNSALSKDVKVKWSSMETFIGALVSELLMVAIEISTTGLSSSIDPLNYREMSYALSAISGIYSPYVFGIGLICGGLLALIVESLGSAWGTLEALNKHNHRNTTLLYVFESVPAIIIASIFSQNYDQIVNTVLSLMSVTPIIVFIPAFFVGLLVGDEKIMGKYSYSRRRMVIYWITVVILLISGIMSLL”, for which the protein production entry is on record as “failed”.

“MGIFERYLSVWVGLSIILGVILGLWQPNIFQLITEFEIAHVNIVVAVFIWVMIYPMMVQIDFSSIQNVGKNPKGLVLTIIINWFVKPFTMAALGWLFFNYLFADLVDPESAQEYIAGMILLGVAPCTAMVFVWSQLTKGDPNYTLVQVSVNDVIMIFAFAPISAFLLGVSDIQVPWETLLISVLLYVLLPLIAGVVTRRMLNKGNDKVDAQKSAEASINADEETNTNTDSTNKSLDNLLATLKPWSVIGLLATVVLLFGFQANTIISEPQTIGLIAIPLMIQTYGIFIIAYLAAKWLKLPHNIAAPACLIGTSNFFELAVAVAISLFGLHSGAALATVVGVLVEVPVMLSLVYFINHTQNWFVEGG”: the protein production entry was “failed”. As to “MKNIVVIGAGNIGSAIAWMLAATGDYRITVADRSADQLANVPAHERVDTEIVDIADRPALEALLKGKFAVLSAAPFHLTAGIAEAAVAVGTHYLDLTEDVESTRKVKALAETAESALIPQCGLAPGFISIVAADLAARFDKLDSVRMRVGALPQYPSNALNYNLTWSTDGLINEYIEPCEAIVEGRLTAVPALEEREEFSLDGVTYEAFNTSGGLGTLCATLEGKVRTMNYRTIRYPGHVAIMKALLNDLNLRNRRDVLKDLFENALPGTMQDVVIVFVTVCGTRNGRFLQETYANKVYAGPVSGRMMSAIQITTAAGICTVLDLLAEGSLPQKGFVRQEEVALPKFLENRFGRYYGAHEPLARVG”, the protein production result is “failed”. As to “MIGPMWSDVIDLRDFYATSQGQLTRRLIGRSLRALWPEVRGCRVLGLGYAVPFLQPFADEAERVVAMMPAPMGAVRWPSVGPVQGALADELELPLPDRSIDRLLLIHGLEFADHAHGLLRECWRVLADNGRLMVVVPNRRATWARMERSPFANGQPYSEGQLTRLLRDRLFTPIASSTALFMPPSRSRMVMGSASLLEQIGCRLFPAFGGVVVVDCAKQIAAPVLRSAVASRRVYVGVGLSQPLQGSSRAGFKNPAPFTGVDGS”, the protein production entry is “failed”.

With “SPMPAGRPRFLRSMALSSQTREWLEKGMPTEAEAGVPIRLQERAANTAPQARAEERHTQPADAAAPHARAERGRTLQAPASTSPLYTGAVPRANRIVQQLVEAGADLANIRTMFRNMLRGEEMILSRAEQNVFLQHFPDMLPCGIDRNSELAIALREALRRADSQQAARAPARTPPRSS”, the protein production result was “not failed”.

Turning to “MSYKVLPLSEVMSHEFGLIEGNFHNISEADIASAIPSHLTFEQLKQHLYEGNLALVSDTPQTPALLSYNDPIGPKTWRLNSEVISELSDDAANNLLAITKTTRATGGYRSCIGETSTLERVYTPQPIATESEEEITKEFEYSFEVGCSDATIKKMVHSDFALAKTEKENAVTRWEQTNTEQGTRYTALCVFDEPKRLNIHIADDNLGLTPLEAVTLQKAGSCKTDEGFIPVVPAVRLGERLGLPTEGYYYHFNDGELVQEYKILGEEKWAFYATQSTQDKLNDERGFTKDQSAILVYWKLADQIIENQYIIYLERQITREELDNLSEDWLCENGIKLDIPALFDAVKQPEEARSEGNNDETQAEQTAATHTVTVGEDWQSIAELYGMGAKALLLLNPVFEADPLSLAVGDEIIVAEKQQQQAPDKKNTFPPLRPQTYNNIRNSHYQHSDPLLGLTKYRAINTADCIEGDVVILNLKDATSSIVFAKSCTRPEGCIEIGDQQESISNFGPWSFFFAQANANPAAVIPAIQATQAQMAMGSSAAVAGSPEQMQQTQTAAMQLDKLAGTLKEKIVEGYRWQVEGIGALFAMQQSLFGDNTQYTDQDLRQVTTAQSRVRVHITEPQGGEFYPHVQGYHVDDTRIPIKYVKQGNNGQLSVAIEENGPTIYWTPEENGEASWQTTPDHSDGFEKDDILVTPIHSDSDANVTVTPAPEEKDWRDAILVFPESSGIAPLYVVYKESPRDKPGVVTGKGEDIFGIWLADAGKDLGAPIPSQIADKLRGREFSSFDAFREGFWYAVGEDQTLINQFSRANQRLIKRGRSPFSLPSEQVGGRQRYELHHKEEIQYGGEVFHVDNLCVLTPKRHISIHKDQ”, the protein production result is listed as “failed”. Consider “MRLSKEFIGLGIITASLIFGSSLPDIYKGIVILIVAGCLWFFELLPLPVTSLAIPIMAVFLGIFNLKEALTYFAHPIIFLFLGGFMLAQALKNHNLDKFIAYKLLNYGKDFKTTCFLMFLSAYFLSMWISNTSATLILLPIALGLLHKKTGKLRDFLLLGVAYSASIGGIATIIGSPPNAIASSYLDYGFFSWFKVGFPISLLLFLICTLTLYIYFKKWIPKEDIAIQARMELSRNAYKLLVIFVLIASLWIISDYLSEIFNVQYFDSVIAIFAIILLFVFNLVEVNDFKKIDWGTLILFGGALCLGGVIVKSGANTFLSEKLIAILGNLTPIVLLFLVVTITIILTNFISNTGLTGIIVPILFGVSLGIPKEILILAVGMSASCSFILPVGTPPNAIVYSEGVKKEEMMKIGMILSILSAAVITLYSILYL”, for which the protein production result was “failed”. Take “MSTDKSKTRELILNGNLYKVLFLISFPIVITNIIQAFYDLTDMFYVGKLGAMPLSALSLAGPVNFFIIAIAMGMATGSISLMSKCIGEGNFSRFSRYAGQLIVLNFVLSLFVTICAFFFIDHLLDLLGVKGELKELSRVYFYVTIFAIPIMFLSISITYILNAQGETILSMTIVLFANIVNFILDPILIFSFNMGITGAAWATLFSKLLTVVFYLFLTYRLNYGLKIHLKDLVIDIRSIKEIVNLGLPSTFGQIMVSLSFFIFNYIVIEISPKFLAAYGLTNTIISFLFLPAMGIGTGIISIVGQNLGAKKVNRVEEVLKKGFFISLAILLIINSIVIFNKQFILRLFTNDLEVLNYANNYLLLTTIGTFGYGLQQVFFGGLIGSGRTKIAMIVIFIRLWLIRLPVVFIFQYFGIMENSLGYAFIISNYLAIIILIAFTCTRYWVKPILIKKYK”: the protein production entry is listed as “failed”.
